Laboratory results: article PMC8072286, “Gcn5-Related N-Acetyltransferases (GNATs) With a Catalytic Serine Residue Can Play Ping-Pong Too” (Frontiers in Molecular Biosciences, 2021)

Substrate: CCCCCCCC(=O)N(C)CCN
Experiment: steady-state acetyltransferase assay, substrate saturation
Type: biochemical, Pseudomonas aeruginosa
Conditions: AcCoA held at 0.5 mM; NANMO 0-3.5 mM, used as hydrochloride
From the text: steady-state acetyltransferase assay, substrate saturation on PA3944

B1: PA3944 (Pseudomonas aeruginosa PAO1) (protein)
chain: MNANLPPSAISELHGPRLLLRAWRDSDREAFAEMCADPQVMEFFPSVLDRAQSDALVDRVQAHFAERGYGPWALELPGEAAFIGFTGLFDVTMDVHFAPTVEIGWRLAPAYWGRGLAREAAETALDFAFERLRLPEVVAFTTPPNRRSWGLMERLGMRRDPAEDFDHPLLAADHPMRRHILYRVDAARWAER
notes: heterologous expression; N-terminal polyhistidine tag kept for kinetics, removed for crystallization; monomer in solution
- Km: 1070 ± 30 µM
- kcat: 0.41 s⁻¹
- kcat/Km: 380 M⁻¹ s⁻¹
